Laboratory results: patent publication US20250339569A1 (3B PHARMACEUTICALS, published 2025)
Each block holds one binder with its values, some of them ahead of it. Starred links: 1 amine or outer side, 2 acyl side, 3 side chain; linkers in the order of their positions; H or OH if unused. Positions of bridges follow the written chain, without caps; N, C: chain ends. Non-standard residues stand in square brackets, D forms with d. Primed or numbered codes have the meaning given here. *: point of attachment. Af3(DImAc) = 3-aminophenylalanine acylated on the ring amine with 2-{2,5-dioxo-octahydroimidazo[4,5-d]imidazolidin-1-yl}acetic acid, O=C(CN1C(=O)NC2NC(=O)NC21)Nc1cccc(C[C@H](N[*:1])C(=O)[*:2])c1; Af3(HySuc) = 3-amino-L-phenylalanine acylated on the ring amine with 2-(3,6-dioxo-1,2,3,6-tetrahydropyridazin-4-yl)acetic acid, O=C(Cc1cc(=O)[nH][nH]c1=O)Nc1cccc(C[C@H](N[*:1])C(=O)[*:2])c1; Af3(CMPy) = 3-amino-L-phenylalanine acylated on the ring amine with 5-cyano-1-methyl-1H-pyrazole-4-carboxylic acid, Cn1ncc(C(=O)Nc2cccc(C[C@H](N[*:1])C(=O)[*:2])c2)c1C#N; af3(ac-glu) = lower case: 3-amino-D-phenylalanine, ring amine acylated with N-acetyl-D-glutamic acid, CC(=O)N[C@H](CCC(=O)[*:3])C(=O)Nc1cccc(C[C@@H](N[*:1])C(=O)[*:2])c1; af3(ac-asp) = lower case: 3-amino-D-phenylalanine, ring amine acylated with N-acetyl-D-aspartic acid, CC(=O)N[C@H](CC(=O)[*:3])C(=O)Nc1cccc(C[C@@H](N[*:1])C(=O)[*:2])c1; Af3(TzPr) = 3-amino-L-phenylalanine acylated on the ring amine with 3-(1H-1,2,4-triazol-3-yl)propanoic acid, O=C(CCc1nc[nH]n1)Nc1cccc(C[C@H](N[*:1])C(=O)[*:2])c1; Af3(Ac-Glu) = 3-aminophenylalanine acylated on the ring amine with N-acetyl-glutamic acid, CC(=O)N[C@@H](CCC(=O)[*:3])C(=O)Nc1cccc(C[C@H](N[*:1])C(=O)[*:2])c1; Aph(HO-Succinyl) = 4-aminophenylalanine acylated on the ring amine with succinic acid (free carboxyl), O=C(CCC(=O)[*:3])Nc1ccc(C[C@H](N[*:1])C(=O)[*:2])cc1; Aph(4SaBz) = 4-aminophenylalanine, ring amine acylated with 4-sulfamoylbenzoic acid, NS(=O)(=O)c1ccc(C(=O)Nc2ccc(C[C@H](N[*:1])C(=O)[*:2])cc2)cc1; Af3(HO-Dga) = 3-aminophenylalanine, ring amine acylated with carboxymethoxy-acetic acid, O=C(COCC(=O)[*:3])Nc1cccc(C[C@H](N[*:1])C(=O)[*:2])c1; Af3(HYDAc) = 3-aminophenylalanine, ring amine acylated with hydantoin-5-acetic acid, O=C(CC1NC(=O)NC1=O)Nc1cccc(C[C@H](N[*:1])C(=O)[*:2])c1; 3MeBn″ = 3-methylbenzylidene, m-xylene unit (from alpha,alpha'-dibromo-m-xylene) joined to both Cys S by thioether linkages; Af3(Ac-Asp) = 3-aminophenylalanine acylated on the ring amine with N-acetyl-aspartic acid; APAc″ = 2-(4-(amino)piperidin-1-yl)acetic acid, NC1CCN(CC(=O)*)CC1; DOTA = O=C(O)CN1CCN(CC(=O)O)CCN(CC(=O)*)CCN(CC(=O)O)CC1; mXylylene = c1cc(C[*:1])cc(C[*:2])c1; N4BzlCONH2 = not defined here; N4BzlCN = not defined here; N4BzlCl = not defined here; NOAzOMe = not defined here; PPAc″ = not defined here; APAc = not defined here; Dap = NC[C@H](N)C(=O)O; AEEA = NCCOCCOCC(=O)O; βAla = NCCC(=O)O; Sar = CNCC(=O)O

Assays:
[1] = molecular target: human carbonic anhydrase 9 (CAIX) (human, UniProt Q16790 38-459); test: FACS competition on HT-29 cells, competitor tracer 3BP-4149; category B = pIC50 7.1-8.0
Description: (§1) CAIX-expressing human HT-29 colorectal cancer cells (DSMZ, RRID: CVCL_0320) were cultured in McCoys's 5A modified medium (Biochrom, #F1015) including 10% fetal calf serum (FCS), 2 mM L-glutamine, 100 U/ml penicillin and 100 μg/mL streptomycin. Cells were detached with Accutase (Biolegend, #423201) and washed in FACS buffer (PBS including 1% FCS). Cells were diluted in FACS buffer to a final concentration of 500.000 cells per ml. 200 μL of the cell suspension were transferred to a u-shaped non-binding 96-well plate (Greiner) and cells were washed in ice-cold FACS buffer.
(§2) When biotinylated compounds were used an additional incubation step with 1 μg/mL APC-Streptavidin (Miltenyi; #130-106-791) in 50 μL FACS buffer for 30 minutes on ice was performed.
(§3) Cells were washed twice with ice-cold FACS buffer and analyzed in an Attune NxT flow cytometer (Thermo Fisher). Median fluorescence intensities (MFI) of the APC/Cy5-channel were calculated by Attune NxT software.

[2] = molecular target: human carbonic anhydrase 9 (CAIX) (human, UniProt Q16790 38-459); test: FACS competition on HT-29 cells against tracer 3BP-2776; pIC50 category C = pIC50 6.1-7.0
Description: as §1, §2, §3

[3] = molecular target: T1, Fc-fusion protein of human carbonic anhydrase IX (human, UniProt Q16790 38-414); test: SPR, captured hCAIX-Fc; pKD category A: >8.0
[4] = molecular target: T1, Fc-fusion protein of human carbonic …; test: SPR, captured hCAIX-Fc; t1/2 category C: 2.1-5.0 min
[5] = molecular target: human carbonic anhydrase IX (CAIX) (human, UniProt Q16790 38-459); test: FACS competition, HT-29 cells, tracer 3BP-4149; pIC50 category B: 7.1-8.0
Description: as §1, §2, §3

pIC50 [1]: 7.1 to 8 pic50
B1: 3BP-4262 (peptide)
peptide: {DOTA-AEEA}-DCE[dP]DWLTW[Dap]C-NH2
modifications: lactam 10-1; linker 2-11 via mXylylene
SMILES: CC(C)C[C@@H]1NC(=O)[C@H](Cc2c[nH]c3ccccc23)NC(=O)[C@H](CC(=O)O)NC(=O)[C@H]2CCCN2C(=O)[C@H](CCC(=O)O)NC(=O)[C@@H]2CSCc3cccc(c3)CSC[C@@H](C(N)=O)NC(=O)[C@H](CNC(=O)C[C@H](NC(=O)COCCOCCNC(=O)CN3CCN(CC(=O)O)CCN(CC(=O)O)CCN(CC(=O)O)CC3)C(=O)N2)NC(=O)[C@H](Cc2c[nH]c3ccccc23)NC(=O)[C@H]([C@@H](C)O)NC1=O

pIC50 [2]: 6.1 to 7 pic50
B2: 3BP-3055 (peptide)
peptide: Ac-VYCEGDWATWQC-NH2
modifications: linker 3-12 via mXylylene
SMILES: CC(=O)N[C@H](C(=O)N[C@@H](Cc1ccc(O)cc1)C(=O)N[C@H]1CSCc2cccc(c2)CSC[C@@H](C(N)=O)NC(=O)[C@H](CCC(N)=O)NC(=O)[C@H](Cc2c[nH]c3ccccc23)NC(=O)[C@H]([C@@H](C)O)NC(=O)[C@H](C)NC(=O)[C@H](Cc2c[nH]c3ccccc23)NC(=O)[C@H](CC(=O)O)NC(=O)CNC(=O)[C@H](CCC(=O)O)NC1=O)C(C)C

pIC50 [2]: 6.1 to 7 pic50
B3: 3BP-3309 (peptide)
peptide: Ac-VYCE[Sar]DWL[dA]WQC-NH2
modifications: linker 3-12 via mXylylene
SMILES: CC(=O)N[C@H](C(=O)N[C@@H](Cc1ccc(O)cc1)C(=O)N[C@H]1CSCc2cccc(c2)CSC[C@@H](C(N)=O)NC(=O)[C@H](CCC(N)=O)NC(=O)[C@H](Cc2c[nH]c3ccccc23)NC(=O)[C@@H](C)NC(=O)[C@H](CC(C)C)NC(=O)[C@H](Cc2c[nH]c3ccccc23)NC(=O)[C@H](CC(=O)O)NC(=O)CN(C)C(=O)[C@H](CCC(=O)O)NC1=O)C(C)C
notes: also called Ac-Val-Tyr-[Cys(3MeBn)-Glu-Nmg-Asp-Trp-Leu-ala-Trp-Gln-Cys]-NH2

pKD [3]: > 8 pkd
t1/2 (half-life of the complex, SPR) [4]: 2.1 to 5 min
pIC50 [5]: 7.1 to 8 pic50
Binder: {DOTA-PPAc″}-YCE[dP]DWLTWSC-NH2 (linker 2-11 via mXylylene; reading uncertain) [3BP-4446]

pIC50 [1]: 7.1 to 8 pic50
Binder: {DOTA-APAc″}-VYCE[dP]D[Aph(HO-Succinyl)]LTWSC-NH2 (linker 3-12 via mXylylene) [3BP-4356]

pIC50 [1]: 7.1 to 8 pic50
Binder: {DOTA-APAc″}-VYCE[dP]D[Af3(TzPr)]LTWSC-NH2 (linker 3-12 via mXylylene) [3BP-4324]

pKD [3]: > 8 pkd
t1/2 (half-life of the complex, SPR) [4]: 2.1 to 5 min
pIC50 [5]: 7.1 to 8 pic50
Binder: {DOTA-APAc}-VYCE[dP]D[Af3(HO-Dga)]LTWSC-NH2 (linker 3-12 via 3MeBn″; reading uncertain) [3BP-4368]

pIC50 [1]: 7.1 to 8 pic50
Binder: {DOTA-APAc″}-VYCE[dP]D[Af3(HySuc)]LTWSC-NH2 (linker 3-12 via mXylylene) [3BP-4322]

pIC50 [2]: 6.1 to 7 pic50
B4: 3BP-3604 (peptide)
peptide: Ac-VY[dC][βAla]WLTWSC-NH2
modifications: linker 3-10 via mXylylene
SMILES: CC(=O)N[C@H](C(=O)N[C@@H](Cc1ccc(O)cc1)C(=O)N[C@@H]1CSCc2cccc(c2)CSC[C@@H](C(N)=O)NC(=O)[C@H](CO)NC(=O)[C@H](Cc2c[nH]c3ccccc23)NC(=O)[C@H]([C@@H](C)O)NC(=O)[C@H](CC(C)C)NC(=O)[C@H](Cc2c[nH]c3ccccc23)NC(=O)CCNC1=O)C(C)C
notes: also called Ac-Val-Tyr-[cys(3mebn)-Bal-Trp-Leu-Thr-Trp-Ser-Cys]-NH2

pIC50 [1]: 7.1 to 8 pic50
Binder: {DOTA-APAc″}-VYCE[dP]D[af3(ac-glu)]LTWSC-NH2 (linker 3-12 via mXylylene; not fully specified) [3BP-4362]

pIC50 [1]: 7.1 to 8 pic50
Binder: {DOTA-APAc″}-VYCE[dP]D[Af3(Ac-Asp)]LTWSC-NH2 (linker 3-12 via mXylylene) [3BP-4363]

pIC50 [1]: 7.1 to 8 pic50
Binder: {DOTA-APAc″}-VYCE[dP]D[af3(ac-asp)]LTWSC-NH2 (linker 3-12 via mXylylene; not fully specified) [3BP-4364]

pKD [3]: > 8 pkd
t1/2 (half-life of the complex, SPR) [4]: 2.1 to 5 min
pIC50 [5]: 7.1 to 8 pic50
Binder: {DOTA-APAc}-VYCE[dP]D[Aph(4SaBz)]LTWSC-NH2 (linker 3-12 via mXylylene; reading uncertain) [3BP-4398]

pIC50 [2]: 6.1 to 7 pic50
B5: 3BP-3325 (peptide)
peptide: Ac-CE[Sar]DWLTWQC-NH2
modifications: linker 1-10 via mXylylene
SMILES: CC(=O)N[C@H]1CSCc2cccc(c2)CSC[C@@H](C(N)=O)NC(=O)[C@H](CCC(N)=O)NC(=O)[C@H](Cc2c[nH]c3ccccc23)NC(=O)[C@H]([C@@H](C)O)NC(=O)[C@H](CC(C)C)NC(=O)[C@H](Cc2c[nH]c3ccccc23)NC(=O)[C@H](CC(=O)O)NC(=O)CN(C)C(=O)[C@H](CCC(=O)O)NC1=O
notes: also called Ac-[Cys(3MeBn)-Glu-Nmg-Asp-Trp-Leu-Thr-Trp-Gln-Cys]-NH2

pIC50 [1]: 7.1 to 8 pic50
Binder: {DOTA-APAc″}-VYCE[dP]D[Af3(DImAc)]LTWSC-NH2 (linker 3-12 via mXylylene) [3BP-4341]

pIC50 [1]: 7.1 to 8 pic50
Binder: {DOTA-APAc″}-VYCE[dP]D[Af3(Ac-Glu)]LTWSC-NH2 (linker 3-12 via mXylylene) [3BP-4361]

pIC50 [1]: 7.1 to 8 pic50
Binder: {DOTA-APAc″}-VYCE[dP]E(N4BzlSO2Me)WLTWSC-NH2 (linker 3-12 via mXylylene) [3BP-4333]

pIC50 [1]: 7.1 to 8 pic50
Binder: {DOTA-APAc″}-VYCE[dP]E(N4BzlCONH2)WLTWSC-NH2 (linker 3-12 via mXylylene; not fully specified; reading uncertain) [3BP-4345]

pIC50 [1]: 7.1 to 8 pic50
Binder: {DOTA-APAc″}-VYCE[dP]E(N4BzlCl)WLTWSC-NH2 (linker 3-12 via mXylylene; reading uncertain) [3BP-4334]

pIC50 [1]: 7.1 to 8 pic50
Binder: {DOTA-APAc″}-VYCE[dP]E(N4BzlCN)WLTWSC-NH2 (linker 3-12 via mXylylene; not fully specified; reading uncertain) [3BP-4340]

pIC50 [1]: 7.1 to 8 pic50
Binder: {DOTA-APAc″}-VYCE[dP]E(NOAzOMe)WLTWSC-NH2 (linker 3-12 via mXylylene; reading uncertain) [3BP-4339]

pKD [3]: > 8 pkd
t1/2 (half-life of the complex, SPR) [4]: 2.1 to 5 min
pIC50 [5]: 7.1 to 8 pic50
Binder: {DOTA-APAc}-VYCE[dP]D[Af3(HYDAc)]LTWSC-NH2 (linker 3-12 via mXylylene; reading uncertain) [3BP-4371]

pIC50 [1]: 7.1 to 8 pic50
Binder: {DOTA-APAc″}-VYCE[dP]D[Af3(CMPy)]LTWSC-NH2 (linker 3-12 via mXylylene) [3BP-4305]
